Measured values from patent US20180155451A1 (published 2018).

T1: FcgRIIa R (human, UniProt P12318 34-217)
T1 construct: extracellular domain; also called FcγRIIa R; FcγRIIa type R; not shown: His tag attached to the C terminus
T1 sequence (looked up): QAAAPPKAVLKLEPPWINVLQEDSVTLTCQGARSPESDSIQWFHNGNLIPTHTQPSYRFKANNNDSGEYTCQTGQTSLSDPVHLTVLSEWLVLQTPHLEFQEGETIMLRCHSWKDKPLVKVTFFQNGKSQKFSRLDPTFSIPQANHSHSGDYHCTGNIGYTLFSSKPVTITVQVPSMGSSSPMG

T2: FcgRIIa H (human, UniProt P12318 34-217)
T2 construct: extracellular domain; also called FcγRIIa H; FcγRIIa type H; not shown: His tag attached to the C terminus
T2 sequence (looked up): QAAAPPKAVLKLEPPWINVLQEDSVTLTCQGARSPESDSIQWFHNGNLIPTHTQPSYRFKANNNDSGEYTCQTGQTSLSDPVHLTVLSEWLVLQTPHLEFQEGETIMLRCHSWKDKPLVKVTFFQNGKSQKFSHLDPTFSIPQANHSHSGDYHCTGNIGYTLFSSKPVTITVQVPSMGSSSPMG

T3: FcgRIIb (human, UniProt P31994 43-217)
T3 construct: extracellular domain; also called FcγRIIb; not shown: His tag attached to the C terminus
T3 sequence (looked up): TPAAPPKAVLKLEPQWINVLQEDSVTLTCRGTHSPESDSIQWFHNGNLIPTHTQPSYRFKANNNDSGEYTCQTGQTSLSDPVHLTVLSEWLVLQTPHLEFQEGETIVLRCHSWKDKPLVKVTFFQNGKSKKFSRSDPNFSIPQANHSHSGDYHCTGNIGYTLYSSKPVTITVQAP


Legend:
Assay in all cases: SPR (Biacore); KD of H240-Kn061/H240-Hl071/L73-k0 divided by KD of the variant
FcgRIIIa F = biological target: T4, FcgRIIIa F (human, UniProt P08637 17-208)
T4 construct: extracellular domain; also called FcγRIIIa F; 3aF; not shown: His tag attached to the C terminus
T4 sequence (P08637 17-208): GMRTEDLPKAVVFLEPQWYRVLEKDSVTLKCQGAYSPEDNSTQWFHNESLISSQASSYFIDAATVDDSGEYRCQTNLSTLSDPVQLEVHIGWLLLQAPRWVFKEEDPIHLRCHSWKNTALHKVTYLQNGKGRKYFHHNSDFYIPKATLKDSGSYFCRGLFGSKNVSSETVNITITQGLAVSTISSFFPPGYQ
Procedure: (§1) The antibodies were assessed for the binding to each FcgR. […] The resultant value was defined as relative KD, and used as an assessment indicator.
(§2) Analysis of interaction between obj ective antibody and the FcγR was carried out using Biacore T100 (GE Healthcare), Biacore T200, Biacore A100, and Biacore 4000. HBS-EP+ (GE Healthcare) was used as the running buffer, and the measurement temperature was set to 25° C. Chips produced by immobilizing the antigen peptide by the amine coupling method to a Series S sensor Chip CM5 (GE Healthcare), chips produced by allowing preliminarily biotinylated antigen peptides to interact with and immobilize onto a Series S Sensor Chip SA (certified) (GE Healthcare), chips produced by immobilizing Protein L (ACTIGEN, BioVision) to Series S Sencor Chip CM5 (GE Healthcare), or chips produced by immobilizing Protein A/G (Thermo Scientific) to Series S Sencor Chip CM5 (GE Healthcare) were used. Antibodies of interest were captured onto these chips, and allowed to interact to each FcγR diluted with running buffer.

FcgRIIa R = biological target: T1, FcgRIIa R
Procedure: as §1, §2

FcgRIIa H = biological target: T2, FcgRIIa H
Procedure: as §1, §2

FcgRIIIa V = biological target: T5, FcgRIIIa V (human, UniProt P08637 17-208)
T5 construct: extracellular domain; also called FcγRIIIa V; not shown: His tag attached to the C terminus
T5 sequence (P08637 17-208 F176V limits assumed): as the sequence (P08637 17-208) above, with F160V counted along it
Procedure: as §1, §2

FcgRIIb = biological target: T3, FcgRIIb
Procedure: as §1, §2

Relative KD (FcgRIIIa F)	Relative KD (FcgRIIa R)	Relative KD (FcgRIIa H)	Relative KD (FcgRIIIa V)	Relative KD (FcgRIIb)	Binder
2.2	3.2	2	2.8	2.2	H240-Kn061 (S239M)/H240-Hl071/L73-k0 (antibody, human IgG1, kappa) heavy 1: QDQLVQSGAEVKKPGASVKVSCKASGFNIKDTYIQWVRQAPGQGLEWMGRIDPLRKQTKYREKFEGRVTITADTSTNTAYMELSSLRSEDTAVYYCVRSGREFDYWGQGTLVTVSSASTKGPSVFPLAPSSKSTSGGTAALGCLVKDYFPEPVTVSWNSGALTSGVHTFPAVLQSSGLYSLSSVVTVPSSSLGTQTYICNVNHKPSNTKVDKKVEPKSCDKTHTCPPCPAPEYYWGPMVFLFPPKPKDTLMISRTPEVTCVVVDVSDEDPEVKFNWYVDGVEVHNAKTKPREEQYNATYRVVSVLTVLHQDWLNGKEYKCKVSNKALPAPIEKTISKAKGQPREPQVCTLPPSRDELTKNQVSLWCLVKGFYPSDIAVEWESNGQPENNYKTTPPVLDSDGSFFLYSKLTVDKSRWQQGNVFSCSVMHEALHNHYTQKSLSLSP heavy 2: QDQLVQSGAEVKKPGASVKVSCKASGFNIKDTYIQWVRQAPGQGLEWMGRIDPLRKQTKYREKFEGRVTITADTSTNTAYMELSSLRSEDTAVYYCVRSGREFDYWGQGTLVTVSSASTKGPSVFPLAPSSKSTSGGTAALGCLVKDYFPEPVTVSWNSGALTSGVHTFPAVLQSSGLYSLSSVVTVPSSSLGTQTYICNVNHKPSNTKVDKKVEPKSCDKTHTCPPCPAPELLGGPSVFLFPPKPKDTLMISRTPEVTCVVVDVSHEDPEVKFNWYVDGVEVHNAKTKPREEQYNSTYRVVSVLTVLHQDWLNGKEYKCKVSNDALPMPIEETISKAKGQPREPQVYTLPPSRCELTKNQVSLSCAVKGFYPSDIAVEWESNGQPENNYKTTPPVLDSDGSFFLVSKLTVDKSRWQQGNVFSCSVMHEALHNHYTQKSLSLSP light: DIQMTQSPSSLSASVGDRVTITCRASQDIHKYIAWYQQKPGQAPRLLIQYTSTLQPGVPSRFSGSGSGTDYTFTISSLQPEDIATYYCLQYEQLRTFGGGTKVEIKRTVAAPSVFIFPPSDEQLKSGTASVVCLLNNFYPREAKVQWKVDNALQSGNSQESVTEQDSKDSTYSLSSTLTLSKADYEKHKVYACEVTHQGLSSPVTKSFNRGEC
1.1	2.2	1.5	1.2	3.5	H240-Kn061 (Y234L)/H240-Hl071/L73-k0 (antibody, human IgG1, kappa) heavy 1: QDQLVQSGAEVKKPGASVKVSCKASGFNIKDTYIQWVRQAPGQGLEWMGRIDPLRKQTKYREKFEGRVTITADTSTNTAYMELSSLRSEDTAVYYCVRSGREFDYWGQGTLVTVSSASTKGPSVFPLAPSSKSTSGGTAALGCLVKDYFPEPVTVSWNSGALTSGVHTFPAVLQSSGLYSLSSVVTVPSSSLGTQTYICNVNHKPSNTKVDKKVEPKSCDKTHTCPPCPAPELYWGPSVFLFPPKPKDTLMISRTPEVTCVVVDVSDEDPEVKFNWYVDGVEVHNAKTKPREEQYNATYRVVSVLTVLHQDWLNGKEYKCKVSNKALPAPIEKTISKAKGQPREPQVCTLPPSRDELTKNQVSLWCLVKGFYPSDIAVEWESNGQPENNYKTTPPVLDSDGSFFLYSKLTVDKSRWQQGNVFSCSVMHEALHNHYTQKSLSLSP heavy 2: QDQLVQSGAEVKKPGASVKVSCKASGFNIKDTYIQWVRQAPGQGLEWMGRIDPLRKQTKYREKFEGRVTITADTSTNTAYMELSSLRSEDTAVYYCVRSGREFDYWGQGTLVTVSSASTKGPSVFPLAPSSKSTSGGTAALGCLVKDYFPEPVTVSWNSGALTSGVHTFPAVLQSSGLYSLSSVVTVPSSSLGTQTYICNVNHKPSNTKVDKKVEPKSCDKTHTCPPCPAPELLGGPSVFLFPPKPKDTLMISRTPEVTCVVVDVSHEDPEVKFNWYVDGVEVHNAKTKPREEQYNSTYRVVSVLTVLHQDWLNGKEYKCKVSNDALPMPIEETISKAKGQPREPQVYTLPPSRCELTKNQVSLSCAVKGFYPSDIAVEWESNGQPENNYKTTPPVLDSDGSFFLVSKLTVDKSRWQQGNVFSCSVMHEALHNHYTQKSLSLSP light: DIQMTQSPSSLSASVGDRVTITCRASQDIHKYIAWYQQKPGQAPRLLIQYTSTLQPGVPSRFSGSGSGTDYTFTISSLQPEDIATYYCLQYEQLRTFGGGTKVEIKRTVAAPSVFIFPPSDEQLKSGTASVVCLLNNFYPREAKVQWKVDNALQSGNSQESVTEQDSKDSTYSLSSTLTLSKADYEKHKVYACEVTHQGLSSPVTKSFNRGEC

Continued, binder first:

Binder	Relative KD (FcgRIIIa F)	Relative KD (FcgRIIa R)	Relative KD (FcgRIIa H)	Relative KD (FcgRIIIa V)	Relative KD (FcgRIIb)
H240-Kn061 (S239V)/H240-Hl071/L73-k0 (antibody, human IgG1, kappa) heavy 1: QDQLVQSGAEVKKPGASVKVSCKASGFNIKDTYIQWVRQAPGQGLEWMGRIDPLRKQTKYREKFEGRVTITADTSTNTAYMELSSLRSEDTAVYYCVRSGREFDYWGQGTLVTVSSASTKGPSVFPLAPSSKSTSGGTAALGCLVKDYFPEPVTVSWNSGALTSGVHTFPAVLQSSGLYSLSSVVTVPSSSLGTQTYICNVNHKPSNTKVDKKVEPKSCDKTHTCPPCPAPEYYWGPVVFLFPPKPKDTLMISRTPEVTCVVVDVSDEDPEVKFNWYVDGVEVHNAKTKPREEQYNATYRVVSVLTVLHQDWLNGKEYKCKVSNKALPAPIEKTISKAKGQPREPQVCTLPPSRDELTKNQVSLWCLVKGFYPSDIAVEWESNGQPENNYKTTPPVLDSDGSFFLYSKLTVDKSRWQQGNVFSCSVMHEALHNHYTQKSLSLSP heavy 2: QDQLVQSGAEVKKPGASVKVSCKASGFNIKDTYIQWVRQAPGQGLEWMGRIDPLRKQTKYREKFEGRVTITADTSTNTAYMELSSLRSEDTAVYYCVRSGREFDYWGQGTLVTVSSASTKGPSVFPLAPSSKSTSGGTAALGCLVKDYFPEPVTVSWNSGALTSGVHTFPAVLQSSGLYSLSSVVTVPSSSLGTQTYICNVNHKPSNTKVDKKVEPKSCDKTHTCPPCPAPELLGGPSVFLFPPKPKDTLMISRTPEVTCVVVDVSHEDPEVKFNWYVDGVEVHNAKTKPREEQYNSTYRVVSVLTVLHQDWLNGKEYKCKVSNDALPMPIEETISKAKGQPREPQVYTLPPSRCELTKNQVSLSCAVKGFYPSDIAVEWESNGQPENNYKTTPPVLDSDGSFFLVSKLTVDKSRWQQGNVFSCSVMHEALHNHYTQKSLSLSP light: DIQMTQSPSSLSASVGDRVTITCRASQDIHKYIAWYQQKPGQAPRLLIQYTSTLQPGVPSRFSGSGSGTDYTFTISSLQPEDIATYYCLQYEQLRTFGGGTKVEIKRTVAAPSVFIFPPSDEQLKSGTASVVCLLNNFYPREAKVQWKVDNALQSGNSQESVTEQDSKDSTYSLSSTLTLSKADYEKHKVYACEVTHQGLSSPVTKSFNRGEC	2.4	4.2	2.4	2.9	3.4
H240-Kn061 (Y234I)/H240-Hl071/L73-k0 (antibody, human IgG1, kappa) heavy 1: QDQLVQSGAEVKKPGASVKVSCKASGFNIKDTYIQWVRQAPGQGLEWMGRIDPLRKQTKYREKFEGRVTITADTSTNTAYMELSSLRSEDTAVYYCVRSGREFDYWGQGTLVTVSSASTKGPSVFPLAPSSKSTSGGTAALGCLVKDYFPEPVTVSWNSGALTSGVHTFPAVLQSSGLYSLSSVVTVPSSSLGTQTYICNVNHKPSNTKVDKKVEPKSCDKTHTCPPCPAPEIYWGPSVFLFPPKPKDTLMISRTPEVTCVVVDVSDEDPEVKFNWYVDGVEVHNAKTKPREEQYNATYRVVSVLTVLHQDWLNGKEYKCKVSNKALPAPIEKTISKAKGQPREPQVCTLPPSRDELTKNQVSLWCLVKGFYPSDIAVEWESNGQPENNYKTTPPVLDSDGSFFLYSKLTVDKSRWQQGNVFSCSVMHEALHNHYTQKSLSLSP heavy 2: QDQLVQSGAEVKKPGASVKVSCKASGFNIKDTYIQWVRQAPGQGLEWMGRIDPLRKQTKYREKFEGRVTITADTSTNTAYMELSSLRSEDTAVYYCVRSGREFDYWGQGTLVTVSSASTKGPSVFPLAPSSKSTSGGTAALGCLVKDYFPEPVTVSWNSGALTSGVHTFPAVLQSSGLYSLSSVVTVPSSSLGTQTYICNVNHKPSNTKVDKKVEPKSCDKTHTCPPCPAPELLGGPSVFLFPPKPKDTLMISRTPEVTCVVVDVSHEDPEVKFNWYVDGVEVHNAKTKPREEQYNSTYRVVSVLTVLHQDWLNGKEYKCKVSNDALPMPIEETISKAKGQPREPQVYTLPPSRCELTKNQVSLSCAVKGFYPSDIAVEWESNGQPENNYKTTPPVLDSDGSFFLVSKLTVDKSRWQQGNVFSCSVMHEALHNHYTQKSLSLSP light: DIQMTQSPSSLSASVGDRVTITCRASQDIHKYIAWYQQKPGQAPRLLIQYTSTLQPGVPSRFSGSGSGTDYTFTISSLQPEDIATYYCLQYEQLRTFGGGTKVEIKRTVAAPSVFIFPPSDEQLKSGTASVVCLLNNFYPREAKVQWKVDNALQSGNSQESVTEQDSKDSTYSLSSTLTLSKADYEKHKVYACEVTHQGLSSPVTKSFNRGEC	1.2	4.1	2.6	1.3	7.7
